Measured values taken from patent publication US20030118551A1.

Experiments:
[1] = target: collagen (collagen-coated microtiter wells and culture plates; collagen matrices); assay: cell-based or functional assay
[2] = target: collagen (collagen-coated microtiter wells and culture plates; collagen matrices); assay: about 1 µg protein on collagen-coated microtiter plates, washes of rising stringency, immunodetection with DAB

chimeric ECB-CEE+ Moloney Murine Leukemia Virus gp70 envelope protein with collagen binding domain, on retroviral vector particles (from UniProt P03385 52-469)
transduction efficiency of NIH 3T3 cells overlaid upon the virus-bound collagen [1]: 20 to 40%

purified, renatured SU-ECB-CEE+ chimeric envelope protein (His×6 tag, von Willebrand Factor derived collagen binding domain, mature SU region of MoMuLV env gp70, residues 34 to 474) (from UniProt P03385 52-474)
urea needed to release the collagen-bound protein [2]: 3 M
